The record followed here is US20220112288A1 (published 2022).

What is called Kd is the concentration at which binding is half-saturated. As usually defined, the koff is the rate constant with which the complex falls apart. Usually kon stands for the second-order rate constant of association.

Test [1] has as its target T1, Recombinant human CD4 (R&D Systems, Cat. 10327-CD) (human, UniProt P01730 26-390, limits assumed).
T1 construct: Bought soluble recombinant protein used as analyte at 100 nM; also called huCD4
Put plainly: BLI (Octet Red384), non-clonal supernatant on AMC sensor, 100 nM human CD4, 1:1 local fit.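 Further: hybridoma antibodies captured from supernatant, single CD4 concentration as analyte, association and dissociation phases fitted together, giving single-point kinetic estimates per supernatant.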 In general terms: BLI is a label-free optical method that tracks binding on a fibre tip over time.

Test [2] has as its target T1, Recombinant human CD4 (R&D Systems, …). The test is described as follows: BLI (Octet Red384), non-clonal supernatant on AMC sensor, 100 nM human CD4.

B1: 75110_14G10A (antibody, V domains shown)
VH: EVQLVESGGGLVKPGGSLRLSCAASGFTFSSYSMNWVRQAPGKGLEWVSFISSSSSYIYYADSVKGRFTISRDNAKNSLYLQMNSLRAEDTAVYYCARERGDDYGDYEGAFDIWGQGTMVTVSS
VL: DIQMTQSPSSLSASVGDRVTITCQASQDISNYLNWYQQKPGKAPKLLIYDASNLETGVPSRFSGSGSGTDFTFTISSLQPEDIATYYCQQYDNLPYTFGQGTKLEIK
notes: Non-clonal AlivaMab Mouse Kappa hybridoma supernatant, captured by anti-mouse IgG Fc (human V regions, mouse Fc)
Turning to B1, in test [1], the Kd is < 0.001 nM, the koff is < 1e-07 s⁻¹ and the kon came out at 78800 M⁻¹ s⁻¹. Also, in test [2], the Response was determined as 0.0363.

B2: 75110_03I23A (antibody, V domains shown)
VH: QVQLQESGPGLVKPSETLSLTCTASGGSITSYYWNWIRQPAGKGLEWIGRIYTSGSTNYNPSLKSRVTMSVDTSKNQFSLKLSSVTAADTAVYYCARDPGYSDAFNIWGQGTMVTVSS
VL: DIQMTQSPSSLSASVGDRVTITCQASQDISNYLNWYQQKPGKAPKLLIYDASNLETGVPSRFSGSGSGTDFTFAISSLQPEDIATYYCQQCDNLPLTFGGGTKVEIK
notes: as for B1
Regarding B2, in test [1], the Kd came out at 8.6 nM, the koff was found to be 0.0012 s⁻¹ and the association rate constant (kon) turned out to be 140000 M⁻¹ s⁻¹. In test [2], the Response was 0.18.

B3: 75110_07N04A (antibody, V domains shown)
VH: QVQLQESGPGLVKPSETLSLTCSVSGVSSTSFYWSWIRQPAGKGLDWIGRIYTSGSTNYNPSLKSRVTMSVDTSKNQFSLKLSSVTAADTAVYYCARDPGYSDAFAIWGQGTMVTVSS
VL: not shown
notes: as for B1
As to B3, in test [1], the Kd is < 0.001 nM, the koff is < 1e-07 s⁻¹ and the kon came to 140000 M⁻¹ s⁻¹. Further, in test [2], the Response worked out at 0.1.

B4: 75110_02E22A (antibody, V domains shown)
VH: QVQLQESGPGLVKPSETLSLTCTVSGGSISSFYWSWIRQPAGKGLEWIGRIYTSGSTNYNPSLKSRVTMSVDTSKNQFSLKLSSVTAADTAVYYCARELEKRNYYGMDVWGQGTTVTVSS
VL: DIQMTQSPSSLSASVGDRVTITCQASHDISNYLNWYQQKPGKAPKLLIFDASTLETGVPSRFSGSGSGTYFTFTIRSLQPEDIATYYCQQYDSLPLTFGGGTKVEIK
notes: as for B1
As for B4, in test [1], the Kd was found to be 20 nM, the koff amounted to 0.0042 s⁻¹ and the kon came to 210000 M⁻¹ s⁻¹. The Response in test [2] is 0.18.

B5: 75110_06C16A (antibody, V domains shown)
VH: QVQLQESGPGLVTPSETLSLSCTVSGGSISDYYWSWIRQPGGKGLEWIGRIYSSGSTNYNPSLKSRVTMSVDTSKNQFSLKLSSVTAADTAVYFCARDREDYYYYGMDVWGQGTTVTVSS
VL: DIQMTQSPSSLSASVGDRVTITCQASHDISNYLNWYQQKPGKAPKLLIYAASNLETGVPSRFSGSGSGTDFSFTISSLQPEDIATYYCQQYDHLPLTFGGGTKVEIK
notes: as for B1
Regarding B5, in test [1], the Kd came to 9.7 nM, the koff worked out at 0.0024 s⁻¹ and the kon came to 250000 M⁻¹ s⁻¹. In addition, in test [2], the Response was determined as 0.07.

B6: 75110_04D20A (antibody, V domains shown)
VH: QVQLQESGPGLVKPSETLSLTCTVSNGSISDYYWSWIRQPAGKGLEWIGRIYTSGSTNYNPSLKSRITMSVDTSKNQFSLELSSVTAADTAVYYCARELERYYFYGVDVWGQGTTVTVSS
VL: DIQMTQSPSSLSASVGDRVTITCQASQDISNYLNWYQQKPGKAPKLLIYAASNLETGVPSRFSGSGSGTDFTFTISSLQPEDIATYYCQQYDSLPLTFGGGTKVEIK
notes: as for B1
For B6, in test [1], the Kd was found to be 0.88 nM, the koff worked out at 0.00013 s⁻¹ and the kon came out at 150000 M⁻¹ s⁻¹. Moreover, the Response in test [2] was 0.2.

B7: 75110_04H17A (antibody, V domains shown)
VH: QVQLQESGPGLVKPSETLSLTCTVSGGSISTYYWSWIRQSAGKGLEWIGRIYTSERPNYNPSLKSRVTMSVDTSKNQFSLKLNSVSAADTAVYYCARELERPYYYGMDVWGQGTTVTVSS
VL: DVQMTQSPSSLSASVGGRVTITCQASQDISNYLNWYQQKPGKAPKLLIYYASNLETGVPSRFSGSGSGTDFTFTISSLQPEDFATYYCQQYDNLPLTFGGGTKVEIK
notes: as for B1
B7: in test [1], the Kd turned out to be 9 nM, the koff came to 0.00097 s⁻¹ and the kon was found to be 110000 M⁻¹ s⁻¹. For the same molecule, the Response in test [2] is 0.16.

B8: 75110_08D24A (antibody, V domains shown)
VH: QVQLQESGPGLVKPSETLSLTCTVSGGSISGFYWSWIRQPAGKGLEWIGRIYTSENTNYNPSLKSRVTMSVDTSKNQFSLKLSSVTAADTAVYYCARDREGYYYYGMDVWGQGTTVTVSS
VL: DIQMTQSPSSLSASVGDRVTITCQASQDISNYLNWYQQKPGKAPKLLIYAASNLETGVPSRFSGSGSGTDFTFTISSLQPEDIATYYCQQYDSLPITFGQGTRLEIK
notes: as for B1
In the case of B8, in test [1], the equilibrium dissociation constant (Kd) came out at 34 nM, the koff came to 0.006 s⁻¹ and the kon came to 170000 M⁻¹ s⁻¹. For the same molecule, the Response in test [2] came out at 0.21.

B9: 75110_06G04A (antibody, V domains shown)
VH: QVQLLESGPGLVKPSETLSLTCTVSGGSISSYYWSWIRQPAGKGLEWIGRIYISGSTNYNPSLKSRVTMSIDTSENQFSLNLSSVTAADTAVYYCARELERPYYYGMDVWGQGTTVTVSS
VL: DIQMTQSPSSLSASVGDRVTITCQASQDISNYLNWYQQKPGKAPKLLIYNASTLETGVPSRFSGSGSGTDFTFTISSLQPEDIATYYCQQYDNLPLTFGGGTKVEFK
notes: as for B1
On to B9, for which, in test [1], the Kd was determined as 14 nM, the koff was 0.001 s⁻¹ and the kon was determined as 75000 M⁻¹ s⁻¹. In test [2], the Response is 0.12.

B10: 75110_06K03A (antibody, V domains shown)
VH: QVQLQESGPGLVKPSETLSLTCTVSGGSISTYYWSWIRQPAGKGLEWIGRINTSGSTTYNPSLKSRVTMSVDTSKNQFSLKLSSVTAADTAVYYCARELERYYYYGMDVWGQGTTVTVSS
VL: DIQMTQSPSSLSASVGDRVTITCQASQDISNYLNWYQQKPGKAPKLLIYYASILETGVPSRFSGSGSGTDFTFTISSLQPEDIATYYCQQYDSLPLTFGGGTKVEIK
notes: as for B1
Turning to B10, in test [1], the Kd came to 6.8 nM, the koff came out at 0.0019 s⁻¹ and the kon stood at 280000 M⁻¹ s⁻¹. For the same molecule, the Response in test [2] amounted to 0.14.

B11: 75110_06E14A (antibody, V domains shown)
VH: QVQLQESGPGLVKPSETLSLTCTVSGGSISNYFWSWIRQPAGKGLEWIGRIYSSGNTNYNPSLKSRVTMSVDTSKNQFSLKLSSVTAADTAVYYCARDREDYYYYGMDVWGQGTTVTVSS
VL: DIQMTQSPSSLSASVGDRVTITCQASQDISNYLNWYQQKPGKAPKLLIYGASILETGVPSRFTGSGSGTDFTFTISSLQPEDIATYYCQQYDSLPITFGQGTRLEIK
notes: as for B1
B11: in test [1], the Kd is 12 nM, the koff amounted to 0.002 s⁻¹ and the kon is 170000 M⁻¹ s⁻¹. Further, the Response in test [2] worked out at 0.12.

B12: 75110_08M20A (antibody, V domains shown)
VH: QVQLQESDPGLVKPSETLSLTCTVSGGSISSYYWSWIRQPAGKGLEWIGRIYASGSTNYNPSLKSRVTMSVDTSKNQFSLKLSSVTAADTAVYYCARDREGYYYYGMDVWGQGTTVTVSS
VL: DIQMTQSPSSLSASVGDRVTITCQASQDISKYLNWYQQKPGKAPNLLIYAASNLETGVPSRFSGSGSGTDFTFTISSLQPEDIAAYYCQQYDSLPITFGQGTRLEIK
notes: as for B1
Consider B12, for which, in test [1], the Kd turned out to be 3.6 nM, the koff amounted to 0.00053 s⁻¹ and the kon was determined as 150000 M⁻¹ s⁻¹. In addition, the Response in test [2] is 0.19.

B13: 75110_05G15A (antibody, V domains shown)
VH: QVQLQESGPGLVKPSQTLSLTCTVSGGSISSGGYFWSWIRQHPGKGLEWIGCIYYSGSTYYIPSLKSRVTISVDTSKNQFSLKLRSVTAADTAVYYCARDGYDYWYFDLWGRGTLVTVSS
VL: not shown
For the molecule B13, in test [1], the Kd was < 0.001 nM, the koff was < 1e-07 s⁻¹ and the association rate constant (kon) came to 78000 M⁻¹ s⁻¹. Moreover, in test [2], the Response was 0.24.

B14: 75110_05E05A (antibody, V domains shown)
VH: QVQLQESGPGLVKPSETLSLTCTVSGGSIGSYYWSWIRQPAGKGLEWIGRIYTSGSTNYNPSLKSRVTMSFDTSKNQFSLKLNSVTAADTAVYYCATDGGVGDSLDYWGQGTLVTVSS
VL: DIVMTQTPLSLPVTPGEPASISCRSSQSLLDSDDGNTYLDWYLQKPGQSPQLLIYTLSYRASGVPDRFSGSGSGTDFTLKISRVEAEDVGVYYCMQHIEFPFTFGPGTKVDIK
notes: as for B1
Take B14: in test [1], the Kd was found to be 0.95 nM, the koff was 0.00013 s⁻¹ and the kon turned out to be 140000 M⁻¹ s⁻¹. In addition, in test [2], the Response was 0.24.

B15: 75110_02K11A (antibody, V domains shown)
VH: QVQLQESGPGLVKPSQTLSLTCTVSGGSISSGFYYWTWIRQHPGKGLEWIGYISYSGNTYYNPSFKSRLTISVDTSKSQFSLKLSSVTAADTAVYYCARDRPSNFDAFDIWGQGTMVTVSS
VL: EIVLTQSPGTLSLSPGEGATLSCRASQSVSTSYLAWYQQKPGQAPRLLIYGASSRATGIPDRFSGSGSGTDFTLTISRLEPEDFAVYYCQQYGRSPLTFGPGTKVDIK
notes: as for B1
Turning to B15, in test [1], the Kd came out at 17 nM, the koff was 0.0022 s⁻¹ and the kon was determined as 130000 M⁻¹ s⁻¹. The Response in test [2] was 0.14.

B16: 75110_08F20A (antibody, V domains shown)
VH: QVQLQESGPGLVKPSETLSLTCSVSGGSISTYYWSWIRQPAGKGLEWIGRICTTENTNYNPSLKSRVTMSIDSSKNQFSLKLSSVTAADTAVYYCARDLERLNYYGMDVWGQGATVTVSS
VL: DIQMTQSPSSLSASVGDRVTITCQASQDISKYLNWYQQKPGIAPKLLIYDASNLETGVPSRFSGSGSGTDFTFTISSLQPEDFATYYCQQYDSLPITFGQGTRLEIK
notes: as for B1
B16: in test [1], the Kd was found to be 1.9 nM, the koff was 0.00026 s⁻¹ and the kon was 140000 M⁻¹ s⁻¹. In test [2], the Response stood at 0.32.

B17: 75110_08G08A (antibody, V domains shown)
VH: QVQLQESGPGLVKPSETLSLTCSVSGGSISTYYWSWIRQPAGKGLEWIGRICTTENTNYNPSLKSRVTMSIDSSKNQFSLKLSSVTAADTAVYYCARDLERLNYYGMDVWGQGATVTVSS
VL: DIQMTQSPSSLSASVGDRVTITCQASQDISNYLNWYQQKPGIAPKLLIYDASNLETGVPSRFSGSGSGTDFTFTISSLQPEDIATYYCQQYDSLPITFGQGTRLEIK
notes: as for B1
With B17, in test [1], the Kd was 3.4 nM, the off-rate (koff) stood at 0.00096 s⁻¹ and the on-rate constant (kon) was 280000 M⁻¹ s⁻¹. Moreover, the Response in test [2] is 0.13.

B18: 75110_07J02A (antibody, V domains shown)
VH: EVQLVESGGGLVQPGGSLRLSCAASGFTFSSYWMSWVRQAPGKGLEWVANIKEDGSEKYYVDSVKGRFTISRDNAKNSLYLQMNSLRAEDTAVYYCARDGSYSGYGMDVWGQGTTVTVSS
VL: AIQMTQSPSSLSASVGDRVTITCRASQGIRNDLGWYQQKPGKAPKLLIYAASSLQSGVPSRFSGRGSGTDFALTISSLQPEDFATYYCLLDYNYPYTFGQGTRLEIK
notes: as for B1
For the molecule B18, in test [1], the Kd was 0.56 nM, the koff is 3.83e-05 s⁻¹ and the kon is 68400 M⁻¹ s⁻¹. Besides, the Response in test [2] was determined as 0.13.
